Source: the Human Domainome abundance scans (Beltran et al. 2025)
± gives the uncertainty stated by the source.

B1: POU domain, class 3, transcription factor 3, residues 408 to 463; numbered along this chain, P20264 (parent)
chain: KKRTSIEVSVKGALESHFLKCPKPSAQEITNLADSLQLEKEVVRVWFCNRRQKEKR
B2: Transcription factor SOX-4, residues 60 to 127; numbered along this chain, Q06945 (parent)
chain: KRPMNAFMVWSQIERRKIMEQSPDMHNAEISKRLGKRWKLLKDSDKIPFIREAERLRLKHMADYPDYK

Variants of: B1
Assay: abundance fitness (aPCA) (normalised: wild type 0, dead -1); higher = more abundant; growth selection in yeast, the domain comes from the species named
Conditions: Homo sapiens

Abundance fitness of substitutions, site by site:
G12: C 0.096 ± 0.12, V 0.211 ± 0.075, Q -0.094 ± 0.14, W -0.25 ± 0.084, M 0.161 ± 0.11, R 0.007 ± 0.061, N 0.11 ± 0.15, I 0.051 ± 0.16, H -0.009 ± 0.16, K -0.035 ± 0.15, P -0.056 ± 0.1, E 0.111 ± 0.091, F -0.054 ± 0.11, A 0.227 ± 0.087, D 0.048 ± 0.1, L 0.104 ± 0.071, Y 0.103 ± 0.14, T 0.078 ± 0.099
V10: A -0.005 ± 0.086, H 0.072 ± 0.18, I -0.066 ± 0.096, F -0.291 ± 0.15, C -0.108 ± 0.14, N -0.148 ± 0.18, P -0.472 ± 0.13, K -0.032 ± 0.13, T -0.023 ± 0.13, G -0.241 ± 0.066, E 0.154 ± 0.13, S -0.153 ± 0.089, Y -0.129 ± 0.2, M -0.192 ± 0.14, Q 0.07 ± 0.13, L -0.042 ± 0.093, D 0.176 ± 0.15, R -0.108 ± 0.075
E7: V -0.197 ± 0.069, L -0.09 ± 0.05, W -0.436 ± 0.21, Q -0.035 ± 0.071, P 0.167 ± 0.051, F -0.263 ± 0.063, G 0.013 ± 0.085, Y -0.3 ± 0.06, N 0.063 ± 0.06, K 0.028 ± 0.1, T 0.134 ± 0.056, A -0.096 ± 0.064, S 0.144 ± 0.052, H -0.016 ± 0.057, M -0.035 ± 0.075, D 0.05 ± 0.08, R -0.057 ± 0.063, I -0.157 ± 0.069
R3: A -0.15 ± 0.075, N -0.048 ± 0.2, G 0.04 ± 0.064, Y -0.267 ± 0.19, P -0.2 ± 0.13, Q -0.217 ± 0.13, K 0.067 ± 0.13, V 0.031 ± 0.079, L 0.055 ± 0.087, T -0.077 ± 0.094, M 0.045 ± 0.11, C -0.415 ± 0.15, F -0.119 ± 0.15, I -0.023 ± 0.17, H -0.273 ± 0.15, W -0.155 ± 0.088, S 0.026 ± 0.081
K11: P -0.024 ± 0.12, C -0.141 ± 0.094, A -0.099 ± 0.092, I -0.006 ± 0.11, Y 0.067 ± 0.12, G -0.135 ± 0.067, M -0.006 ± 0.16, F -0.186 ± 0.12, N -0.27 ± 0.15, V -0.085 ± 0.073, R -0.045 ± 0.067, Q -0.015 ± 0.12, H -0.04 ± 0.12, W -0.116 ± 0.089
A13: C -0.199 ± 0.11
V8: E 0.088 ± 0.096, A -0.032 ± 0.097, M 0.098 ± 0.12, K 0.068 ± 0.11, C -0.171 ± 0.11, L 0.1 ± 0.08, Y -0.369 ± 0.21, G 0.055 ± 0.063, P 0.195 ± 0.12, S 0.218 ± 0.092, I 0.1 ± 0.084, T 0.161 ± 0.1, F 0.04 ± 0.27, D -0.075 ± 0.13, N 0.039 ± 0.17, H -0.052 ± 0.15, W -0.141 ± 0.1, R 0.001 ± 0.062
K1: R -0.263 ± 0.12, G -0.067 ± 0.1, Q -0.271 ± 0.27, M -0.333 ± 0.23, I -0.181 ± 0.16, Y -0.258 ± 0.23, D -0.124 ± 0.13, S -0.154 ± 0.14, V -0.092 ± 0.33, N -0.072 ± 0.2, L -0.756 ± 0.24, W -0.15 ± 0.34, C -0.104 ± 0.17, A -0.075 ± 0.27
T4: R -0.26 ± 0.067, Y -0.19 ± 0.11, H -0.405 ± 0.23, M -0.064 ± 0.08, L -0.093 ± 0.074, K -0.142 ± 0.12, A -0.17 ± 0.079, I -0.014 ± 0.17, Q 0.005 ± 0.11, W -0.572 ± 0.11, G -0.077 ± 0.066, F -0.116 ± 0.18, V -0.095 ± 0.073, S -0.077 ± 0.078, D -0.279 ± 0.14, P -0.257 ± 0.16, E -0.082 ± 0.16, C -0.205 ± 0.11
S5: D -0.064 ± 0.12, M 0.125 ± 0.12, N 0.193 ± 0.11, Y 0.206 ± 0.12, H 0.175 ± 0.15, Q 0.203 ± 0.12, G -0.008 ± 0.064, C 0.128 ± 0.09, A 0.086 ± 0.079, E -0.047 ± 0.1, T 0.135 ± 0.098, K 0.097 ± 0.11, W -0.255 ± 0.089, P 0.132 ± 0.12
S9: I -0.368 ± 0.19, F -0.285 ± 0.16, D 0.038 ± 0.14, C -0.247 ± 0.097, E 0.072 ± 0.11, K 0.01 ± 0.15, T -0.051 ± 0.13, H 0.092 ± 0.37, V -0.132 ± 0.092, N 0.166 ± 0.17, G 0.027 ± 0.065, R -0.018 ± 0.092, P -0.068 ± 0.18, W -0.192 ± 0.12, Q 0.067 ± 0.36, L -0.206 ± 0.11, M -0.305 ± 0.15, Y -0.015 ± 0.22, A 0.054 ± 0.088
K2: T -0.008 ± 0.11, S -0.077 ± 0.098, F 0.056 ± 0.16, R -0.086 ± 0.081, C -0.332 ± 0.2, I -0.374 ± 0.17, M -0.066 ± 0.12, E -0.054 ± 0.13, D -0.098 ± 0.14, H -0.38 ± 0.36, Y -0.391 ± 0.14, W -0.321 ± 0.12, N -0.094 ± 0.14, G -0.025 ± 0.089, P -0.305 ± 0.15, V -0.048 ± 0.1, A -0.13 ± 0.12, Q -0.255 ± 0.23
I6: P 0.01 ± 0.16, A -0.015 ± 0.1, K -0.051 ± 0.12, W -0.124 ± 0.088, R -0.108 ± 0.068, Q -0.084 ± 0.09, V -0.093 ± 0.082, E -0.091 ± 0.12, G -0.071 ± 0.071, F -0.272 ± 0.12, Y -0.189 ± 0.12, S -0.077 ± 0.078, T 0.058 ± 0.13, D -0.135 ± 0.12, N -0.234 ± 0.19

Variants of: B2
Assay: as above
Conditions: Homo sapiens

Abundance fitness: each site, then its substitutions
D66: R 0.015 ± 0.078, H -0.141 ± 0.13, C -0.422 ± 0.1, E 0.102 ± 0.085, K -0.11 ± 0.082, I -0.13 ± 0.19, V -0.157 ± 0.049, Q -0.254 ± 0.083, Y -0.537 ± 0.26, A -0.186 ± 0.066, P -0.067 ± 0.079, G -0.08 ± 0.07, T -0.216 ± 0.069, W -0.325 ± 0.13, L -0.152 ± 0.06
M61: S 0.001 ± 0.071, P -0.202 ± 0.087, R -0.134 ± 0.057, V -0.073 ± 0.072, Q 0.092 ± 0.079, W -0.224 ± 0.083, H 0.098 ± 0.061, T -0.025 ± 0.093, N -0.104 ± 0.13, G 0.022 ± 0.069, A -0.061 ± 0.067, K 0.003 ± 0.089, I -0.238 ± 0.072, C -0.071 ± 0.083, Y -0.319 ± 0.25
P65: K 0.018 ± 0.07, T -0.064 ± 0.075, I -0.333 ± 0.15, W -0.466 ± 0.11, Y -0.124 ± 0.24, S 0.102 ± 0.062, H -0.09 ± 0.11, G -0.059 ± 0.09, M -0.193 ± 0.089, Q 0.042 ± 0.063, R -0.174 ± 0.056, V -0.097 ± 0.068, E -0.025 ± 0.076, D 0.103 ± 0.18, A -0.267 ± 0.083
A62: L -0.175 ± 0.042, H -0.175 ± 0.067, G -0.017 ± 0.038, M -0.304 ± 0.075, R -0.033 ± 0.041, K 0.008 ± 0.063, C -0.15 ± 0.049, V -0.123 ± 0.037, S -0.021 ± 0.037, E -0.078 ± 0.068, D 0.015 ± 0.046, W -0.249 ± 0.054, F -0.22 ± 0.059, I -0.163 ± 0.064, P -0.157 ± 0.067, Y -0.104 ± 0.052
Y67: G 0.119 ± 0.081, T -0.14 ± 0.08, I 0.11 ± 0.15, H -0.301 ± 0.38, C -0.04 ± 0.15, L -0.022 ± 0.046, A 0.028 ± 0.093, S 0.088 ± 0.078, M -0.069 ± 0.093, E 0.179 ± 0.083, V 0.159 ± 0.085, N 0.034 ± 0.15, F 0.259 ± 0.25, R 0.048 ± 0.11, W -0.296 ± 0.11, P -0.057 ± 0.088, Q 0.051 ± 0.15, K 0.116 ± 0.11
D63: T -0.104 ± 0.041, W -0.179 ± 0.061, V -0.224 ± 0.038, I -0.181 ± 0.045, Y -0.233 ± 0.057, G -0.142 ± 0.044, K -0.128 ± 0.06, F -0.283 ± 0.05, P -0.117 ± 0.074, L -0.208 ± 0.039, H -0.168 ± 0.057, M 0.055 ± 0.052, S -0.153 ± 0.036, E 0.044 ± 0.042, C -0.397 ± 0.063, A -0.074 ± 0.051
K68: P 0.128 ± 0.35, E -0.155 ± 0.11, V -0.43 ± 0.34, C -0.242 ± 0.17, L -0.297 ± 0.42, S -0.17 ± 0.096, M -0.23 ± 0.31, Y -0.125 ± 0.2, R -0.068 ± 0.079, T -0.436 ± 0.45
Y64: M -0.061 ± 0.078, S 0.063 ± 0.056, C -0.056 ± 0.2, T 0.059 ± 0.065, L 0.009 ± 0.046, W -0.25 ± 0.077, P -0.009 ± 0.061, K 0.128 ± 0.095, A -0.094 ± 0.093, V 0.02 ± 0.063, Q -0.112 ± 0.13, R 0.035 ± 0.068, E 0.006 ± 0.083, N 0.124 ± 0.12, F -0.156 ± 0.094, G -0.008 ± 0.073, I -0.109 ± 0.18
H60: T -0.05 ± 0.069, W -0.161 ± 0.074, S 0.041 ± 0.06, V -0.173 ± 0.053, R -0.19 ± 0.047, Q -0.066 ± 0.072, M -0.092 ± 0.073, L -0.186 ± 0.052, N -0.076 ± 0.24, P -0.045 ± 0.079
